According to patent US20260241035A1, “FUNCTIONAL NUCLEIC ACID MOLECULE AND METHOD” (THE UNIVERSITY COURT OF THE UNIVERSITY OF EDINBURGH, priority 2022, published 2026):

Columns and labels:
[1] = test system: GSC7 cells; assay: in vitro; assay type: cell-based, human; details: ganciclovir alone, no virus
Description: (§2) On the day of cell seeding, cells were detached using above described method. Cells were counted using hemocytometer and seeded into either 96-(1,000 cells per well in 50 μL), 24-(30,000 cells per well in 500 μL) or 6-well (60,000 cells per well in 2 mL) Corning plate and placed into incubator at 37° C./5% CO2. The next day, AAV virus stocks were thawed at room temperature and an appropriate amount of virus stock was added to required amount of culture media to achieve final multiplicity of infection (MOI) of 5×10^5. Culture media containing viral particles was added to cells without replacement of existing media. Cells were returned to 37° C./5% CO2.
(§3) Lyophilised GCV was diluted in DMSO to achieve 100 mM stock concentration. GCV stocks were aliquoted and were stored at −20° C. for no longer than 1 month. […]
(§4) To track cell proliferation and morphological changes during treatments, cells were monitored using the Incucyte live-cell imaging system. […]
(§5) On the day of assay culture media was replaced with 0.3 mg/mL MTT solution (diluted in cell line-appropriate culture media). […] Before reading the plate, each well was visually inspected to make sure that all (formazan) crystals were dissolved. Plate was read with plate reader at 560 nm absorbance.

[2] = in vitro; assay type: cell-based, human; details: human; ganciclovir alone, GSC7; read-out: viability (MTT)
Description: as §2, §3, §4, §5

[3] = test system: GSC7 cells; assay: Flow cytometry of mNGreen reporter in GSC7; assay type: cell-based, human
Description: Cells were seeded at the required density. The following day the transfection was carried out. […] Following this step, the Plus reagent/Optimem premix was added to all DNA samples followed by the Lipofectamine LTX/Optimem premix. The transfection mix was incubated for 5 min at room temperature and then carefully dropped on the cells. Generally, no media change was carried out. Cells were analysed two days following transfection.
(§1) For flow cytometry, cells were detached, pelleted and resuspended in an appropriate volume of flow cytometry buffer (1% BSA in PBS, v/v). Cells were stained with Draq7 (Abcam, ab109202, f.c. 0.1 μM) as a live/dead stain and analysed using the BD LSRFortessa cell analyser (4 lasers, BD Bioscience).

[4] = test system: GSC7 cells; assay: Nano-Glo Dual-Luciferase Reporter (Nanoglo DLR) assay of enhancer activity, fold change to mCMV; assay type: cell-based, human; details: for activity compared with CMV, Nanoglo DLR assay: GSC7
How it was run: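 160 bp enhancer fragments in NanoLuc reporter plasmids were co-transfected 1:10 with PGK-firefly luciferase into GSC7 cells using Lipofectamine LTX/Plus and read two days later. NanoLuc signal was normalised to firefly, then expressed as fold change to the empty mCMV vector.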

[5] = test system: GSC328 cells; assay: Flow cytometry of mNGreen reporter in GSC328; assay type: cell-based, human
Description: Cells were seeded at the required density. The following day the transfection was carried out. For this the Plus reagent and Lipofectamine LTX (Life Technologies, 15338030) were each diluted in half the volume of Opti-MEM I Reduced-Serum Medium (further referred to as Optimem) (Life Technologies, 31985062). Following this step, the Plus reagent/Optimem premix was added to all DNA samples followed by the Lipofectamine LTX/Optimem premix. The transfection mix was incubated for 5 min at room temperature and then carefully dropped on the cells. Generally, no media change was carried out. Cells were analysed two days following transfection.
as §1, with “Bioscience). Analysis of flow cytometry data was carried out in the FlowJo Analysis software (FlowJo, version 10.6.2).” for “Bioscience).”

[6] = target: T1, SOX9 (Homo sapiens, UniProt P48436); assay: Biotinylated enhancer pull down from nuclear extract, SOX9 detection; assay type: binding; details: random DNA 599 as negative control
T1 construct: These dsDNA fragments were incubated with nuclear extract from GSC7 and GSC328; endogenous in cells; host or cells: nuclear extract of GSC7 and/or GSC328 (patient-derived glioblastoma stem cell lines)
T1 sequence (P48436 1-509): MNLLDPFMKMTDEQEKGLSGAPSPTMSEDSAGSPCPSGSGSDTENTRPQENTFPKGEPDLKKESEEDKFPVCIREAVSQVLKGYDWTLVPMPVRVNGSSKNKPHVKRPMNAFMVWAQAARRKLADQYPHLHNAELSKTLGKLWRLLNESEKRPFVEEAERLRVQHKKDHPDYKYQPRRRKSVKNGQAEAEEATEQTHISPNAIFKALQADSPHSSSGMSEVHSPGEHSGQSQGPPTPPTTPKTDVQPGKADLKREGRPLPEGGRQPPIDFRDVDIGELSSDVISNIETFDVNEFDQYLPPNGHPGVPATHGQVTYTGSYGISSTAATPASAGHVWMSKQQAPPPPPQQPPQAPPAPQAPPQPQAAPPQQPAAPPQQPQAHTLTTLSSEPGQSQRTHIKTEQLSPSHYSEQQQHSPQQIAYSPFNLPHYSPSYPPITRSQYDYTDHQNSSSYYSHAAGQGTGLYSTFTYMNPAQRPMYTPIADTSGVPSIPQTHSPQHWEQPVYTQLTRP
Description: The oligo was PCR-amplified using biotinylated primers. The PCR product was then SPRI purified to remove biotinylated primer dimers. These dsDNA fragments were incubated with nuclear extract from GSC7 and GSC328. They were then bound to streptavidin magnetic beads, washed three times and the frozen beads were sent for mass spectrometry analysis.
All the buffers were prepared the day before, passed through a 22 μm filter (except the dialysis buffer) and left at 4° C. overnight. DTT and protease inhibitors were added just before use. […] The cell suspension was transferred to a glass Dounce homogenizer and dounced 40 times on ice. […] Dialysis buffer was changed (500 ml) and the dialysis was continued overnight at 4° C. The extract was collected in an 1.5 ml tube and spun at maximum speed for 15 min at 4° C. […] 100 μg aliquots were flash frozen in liquid nitrogen and stored at −80° C.
Enhancers were amplified with 5′ biotinylated primers (Table 5) using PrimeStar Max (Takara) according to the manufacturer's instructions.
Streptavidin Magnetic Bead (NEB, S1420S) were used according to the manufacturer's instructions. […]
Next, we aimed to confirm that indeed SOX2 and SOX9 are binding to the enhancer and the SOX dimer motif. […] To filter for transcription factors a list of all transcription factors was obtained from UniProt and overlapped with the detected proteins in both cell lines.

Nc1nc(O)c2ncn(COC(CO)CO)c2n1 [ganciclovir]
cell confluence [1]: No significant negative effect on cell confluence
viability at 200 μM [2]: 89%

B1: SSE-3: synthetic super-enhancer ID0876_ID2339_ID1737_ID0663, SEQ ID NO: 66 (nucleic acid)
DNA: GAGCAGGCAGTCATTTGGTTCCCTTCTCTGAATGCATTGGCTCTGATCCACGGCGCCTCAGGAAGTGAAAGGGAGCAGGCAGTGAGGCCAAGCCATGAATGTTGGGCCCTTTTCTTAGAAAACAAAGGGTTCACTTTAGGCTAGGAGGAAACATCCGGGGGTCGGCGGAACTGAGTCTCCTTTGTGGAGCCCCTCATTTGCATGATAAACCCCGGGGACAAAGTGTGTTCTTGTTACTTGGACTGTTTCTTGGAAACTGCTGCTACCTGGAGCGAGTGAACACAGGGCAAGTATTCTCGCCCACAGCAACGTGTCATTGACAACGTTTTTGGCAGATGCAGCTCTTTCTGAACAGTAAGTCATTGTTGAGTGACATGAATAGGACGAGAGCTACAGAAAATGAAGGTTTCAAAAGATTGTCTAAAACAAAAGTCCTTTCAGTCCCGTATTCAGAGTTATAAATTCCGATTAGCCAAGGAAGCTCTGAGTCTAAATACCAGCAAAGCTCAGCCCCTGCAAGTGGGGACGAATTATTTGAAAGGTCATCCTAGAGACACTGAACAAAGGGCCTCTAGCAGCT
expression level compared with positive control CMV, flow cytometry [3]: higher than CMV
activity compared with CMV, Nanoglo DLR assay [4]: higher than CMV

B2: SSE-5: synthetic super-enhancer ID2706_ID3547_ID3548_ID3146, SEQ ID NO: 68 (nucleic acid)
DNA: CCAATGCCAAAGCAGTTTACATTTTACAGATGCCATGGCAACCGTCAGGAAGTTACCCTGTATGGTCTAAGAGGGGGAGGAACCCTCAGTTCCGGGAATTGCCCGCCCCTTTCCCGGAAACTCATGAATAATCCACCCCGTTCCCCCTTAACAAAAGCCACCTCCTCCCTCCTGAAAGGCACCATTGGTCACCAAAACAAGTCCCCTTTGTCCTCCACCGCAGCTGGAGCCTGGGCCTTCCATCTCCTGGGGGCCAATAAAACCCCAGATCAGCCAATCCTCCCTCCCTGGCTCTGTCATCCAAACACTCCCCTGCAACAGATGTACACACAGAGCCCATTGTTTTCTCTAGAAATGTAAACTGCACGTCACAGTTACTCCATACACACCACAAACAGACTCCCTTTGTTCTCAGGATATGTGTTGACACAAGAATATGTCATCCTCTCAGCTCCAGACTGAAAGAGATGGGTGTGTGGGAGTGGGGGAAGCTGAGCTCCAGGCAGACAGCACAGAGCCGCCTTGTCCAACCCAGCCAGGTGCCATGGCAACCAACAAAGGCCCCATTGTCCCGTGTCTGCTGGGCCTTCCTGAGGCTCTGGGGTCAGAGTCCCGGTT
expression level compared with positive control CMV, flow cytometry [3]: higher than CMV
fluorescence intensity compared with CMV [3]: higher intensity than CMV
activity compared with CMV, Nanoglo DLR assay [4]: higher than CMV

B3: SSE-6: synthetic super-enhancer ID3548_ID3146_ID4310_ID4428, SEQ ID NO: 69 (nucleic acid)
DNA: TCCAAACACTCCCCTGCAACAGATGTACACACAGAGCCCATTGTTTTCTCTAGAAATGTAAACTGCACGTCACAGTTACTCCATACACACCACAAACAGACTCCCTTTGTTCTCAGGATATGTGTTGACACAAGAATATGTCATCCTCTCAGCTCCAGACTGAAAGAGATGGGTGTGTGGGAGTGGGGGAAGCTGAGCTCCAGGCAGACAGCACAGAGCCGCCTTGTCCAACCCAGCCAGGTGCCATGGCAACCAACAAAGGCCCCATTGTCCCGTGTCTGCTGGGCCTTCCTGAGGCTCTGGGGTCAGAGTCCCGGTTTTGTCCTGCCTTTGAGAACACTGGAAGGGCACTGAAGGCTGACCAGCATGCACCTCACCCCACCTCCTCTCTGTCTCATCCTCAGCCATCTAAGCGGGAGACTCATCAGGCTTAAATTCTCATTCTTATCCAAGATTCTTCTGCTTCAAATGAGTCTAAATGGAGATCCTCCCATAAAGGGAGTTCTGTTTGGGCTTCCCTTGGAAGTCCATTGAAAGCGTTTCACATTTCAATGCTTCTTTACATTCTCCTCTAGAATGAATCTGGAAGGGCCATTTCATTCCAGCCCTATCAGATTTACTACTTCCTCCTGT
mean fluorescence intensity (MFI) compared with CMV [5]: clearly less intense than CMV

B4: ID2904: enhancer fragment, SEQ ID NO: 5 (nucleic acid)
DNA: TGCATGTTCTTGGGAAAAAGTGGTATTTAATGAAGGCGCTTTGAGCTGAATCAAAGAGCCTCATTCTTCTGAAAGTCCTTCTTCCTAGTCTCTGCATCCGGCTCCTATCAAAGGAAATCCACAGCTTTGGCTTTTCGTTGCTGTTGTCATGGAAATCGTT
SOX9 interaction [6]: selectively interacts
Fold change (Median) ([4]; expression fold change of the individual enhancer compared to mCMV): 251.6 fold
